Measurements published in the supplement of paper PMC10126150.
± gives the standard deviation of the averaged measurements.

Test system: ATP
Assay: switch fluorescence ratio, 500 uM ATP over buffer (Cy3 cluster intensity, sum of 5 cycles each) (fold (ratio)); higher = stronger signal-on switching upon ATP binding; sequences stand for … in TCGTCGGCAGCGTCAGATGTGTATAAGAGACAGTTTTTTTTTTTTTTTTTTTTTTTTT…TC
Settings: aptamer strand: ATP DNA aptamer (quencher-CACCTGGGGGAGTATTGCGGAGGAAGG + anchor), 100 nM annealed; ATP concentration: 500 uM
In short: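 Clusters carrying Cy3-labelled switching strands on a modified Illumina MiSeq flow-cell were annealed to 100 nM quencher-labelled ATP aptamer and imaged in selection buffer. They were imaged again after 15 min with 500 uM ATP at 22 °C, over five buffer/ATP cycles with NaOH stripping and re-annealing in between. For each cluster, the fluorescence ratio is the summed Cy3 intensity of the target cycles divided by that of the buffer cycles, averaged per switch-domain sequence. Clusters outside 100-1000 RFU were left out.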
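Note: ATP exposure 15 min at 22 °C before imaging.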

Sequence TTAGTAAGGT has a switch fluorescence ratio of 1.01 ± 0.059.

For TTAGTACGAT, the switch fluorescence ratio was 1.018 ± 0.0096.

In the case of TTAGTATGAC, the switch fluorescence ratio is reported as 1.02 ± 0.042.

TTAGTCACGC was tested, and the switch fluorescence ratio was 1.029 ± 0.0092.

Work on TTAGTCAGGA yielded a switch fluorescence ratio of 1.04 ± 0.057.

Sequence TTAGTGCGGA has a switch fluorescence ratio of 0.994 ± 0.012.

TTAGTGGGGC gave a switch fluorescence ratio of 1.03 ± 0.041.

TTAGTTGAAT gave a switch fluorescence ratio of 0.985 ± 0.04.

Sequence TTATAAAACC has a switch fluorescence ratio of 1.02 ± 0.028.

Sequence TTATAAAGGT has a switch fluorescence ratio of 1.03 ± 0.079.

With TTATAACTCG the switch fluorescence ratio was 0.995 ± 0.035.

Sequence TTATAAGAGT has a switch fluorescence ratio of 0.987 ± 0.025.

Sequence TTATAAGCAG has a switch fluorescence ratio of 1.02 ± 0.017.

For TTATAAGGGG, the switch fluorescence ratio was 0.979 ± 0.04.

With TTATAAGTAT the switch fluorescence ratio was 1 ± 0.031.

TTATAATGGG was tested, and the switch fluorescence ratio was 0.988 ± 0.025.

Work on TTATACCGTT yielded a switch fluorescence ratio of 0.999 ± 0.01.

Work on TTATACGGTT yielded a switch fluorescence ratio of 1.01 ± 0.012.

In the case of TTATAGAAGA, the switch fluorescence ratio is reported as 1.01 ± 0.0082.

Sequence TTATAGATGT has a switch fluorescence ratio of 0.992 ± 0.027.

For TTATAGCACC, the switch fluorescence ratio was 1.06 ± 0.021.

For TTATAGGCGC, the switch fluorescence ratio was 1.03 ± 0.029.

TTATAGTTGA gave a switch fluorescence ratio of 0.9944 ± 0.0015.

With TTATAGTTTC the switch fluorescence ratio was 1.03 ± 0.057.

TTATATAAGT was tested, and the switch fluorescence ratio was 1.02 ± 0.023.

Sequence TTATATCCGT has a switch fluorescence ratio of 1.01 ± 0.031.

With TTATATGAGG the switch fluorescence ratio was 0.962 ± 0.045.

TTATATGGGA was tested, and the switch fluorescence ratio was 1.01 ± 0.018.

For TTATATGTTG, the switch fluorescence ratio was 1.02 ± 0.026.

With TTATATTAG the switch fluorescence ratio was 0.9817 ± 0.001.

Work on TTATATTAGA yielded a switch fluorescence ratio of 0.971 ± 0.0099.

With TTATATTCCT the switch fluorescence ratio was 1.11 ± 0.048.

Sequence TTATATTGTT has a switch fluorescence ratio of 0.984 ± 0.017.

Work on TTATCAAGGG yielded a switch fluorescence ratio of 0.975 ± 0.025.

With TTATCCAATT the switch fluorescence ratio was 0.9804 ± 0.0089.

For TTATCCGGCG, the switch fluorescence ratio was 0.986 ± 0.056.

For TTATCCTGGG, the switch fluorescence ratio was 1.01 ± 0.023.

TTATCGAGGA showed a switch fluorescence ratio of 0.973 ± 0.021.

TTATCGTATT was tested, and the switch fluorescence ratio was 0.9872 ± 0.0053.

For TTATCGTGTT, the switch fluorescence ratio was 0.984 ± 0.042.

In the case of TTATCTGTTG, the switch fluorescence ratio is reported as 1 ± 0.058.

Work on TTATGAAATG yielded a switch fluorescence ratio of 1 ± 0.025.

TTATGACAAC was tested, and the switch fluorescence ratio was 1.015 ± 0.0044.

TTATGACCAG showed a switch fluorescence ratio of 1.009 ± 0.0095.

TTATGAGCAA gave a switch fluorescence ratio of 1.8 ± 0.096.

TTATGAGCGG gave a switch fluorescence ratio of 1.02 ± 0.048.

TTATGAGGTT gave a switch fluorescence ratio of 1.02 ± 0.026.

TTATGCAGGG was tested, and the switch fluorescence ratio was 1.01 ± 0.012.

With TTATGCATGT the switch fluorescence ratio was 1.02 ± 0.038.

In the case of TTATGCGGTG, the switch fluorescence ratio is reported as 1.0223 ± 0.00072.

TTATGCTAAA showed a switch fluorescence ratio of 0.994 ± 0.04.

In the case of TTATGGAAGA, the switch fluorescence ratio is reported as 0.98 ± 0.026.

Work on TTATGGCTGA yielded a switch fluorescence ratio of 0.988 ± 0.017.

With TTATGGCTTT the switch fluorescence ratio was 0.985 ± 0.018.

Work on TTATGGGCAA yielded a switch fluorescence ratio of 1.1 ± 0.02.

For TTATGGGCTT, the switch fluorescence ratio was 1.27 ± 0.42.

TTATGGGGAG showed a switch fluorescence ratio of 1.005 ± 0.0034.

TTATGGGGGT gave a switch fluorescence ratio of 1.01 ± 0.03.

TTATGGGGTT showed a switch fluorescence ratio of 0.999 ± 0.043.

Sequence TTATGGTAAC has a switch fluorescence ratio of 1.04 ± 0.018.

TTATGGTGAA showed a switch fluorescence ratio of 0.956 ± 0.049.

Sequence TTATGGTTGG has a switch fluorescence ratio of 0.995 ± 0.012.

With TTATGTCAGA the switch fluorescence ratio was 0.987 ± 0.034.

TTATGTGACG was tested, and the switch fluorescence ratio was 0.994 ± 0.082.

For TTATGTGGGG, the switch fluorescence ratio was 0.993 ± 0.033.

TTATGTTTCT was tested, and the switch fluorescence ratio was 0.972 ± 0.026.

For TTATTACT, the switch fluorescence ratio was 0.981 ± 0.011.

TTATTAGTAT was tested, and the switch fluorescence ratio was 1.02 ± 0.016.

In the case of TTATTCCATA, the switch fluorescence ratio is reported as 0.98429 ± 0.00091.

Work on TTATTCCGGT yielded a switch fluorescence ratio of 1.006 ± 0.0024.

TTATTCGATT was tested, and the switch fluorescence ratio was 0.982 ± 0.019.

With TTATTCGGCA the switch fluorescence ratio was 1.005 ± 0.0036.

For TTATTCTTTT, the switch fluorescence ratio was 1 ± 0.026.

In the case of TTATTGATCT, the switch fluorescence ratio is reported as 1 ± 0.065.

Work on TTATTGCGGA yielded a switch fluorescence ratio of 0.994 ± 0.022.

Sequence TTATTGCTCG has a switch fluorescence ratio of 0.989 ± 0.021.

TTATTGGGCT gave a switch fluorescence ratio of 1.01 ± 0.013.

In the case of TTATTGGGTG, the switch fluorescence ratio is reported as 1.04 ± 0.024.

With TTATTGTAAG the switch fluorescence ratio was 0.9675 ± 0.006.

With TTATTGTGTA the switch fluorescence ratio was 0.979 ± 0.025.

Work on TTATTTAGCG yielded a switch fluorescence ratio of 1.03 ± 0.029.

In the case of TTATTTAGTT, the switch fluorescence ratio is reported as 1.01 ± 0.017.

With TTATTTCCAC the switch fluorescence ratio was 0.986 ± 0.013.

TTATTTCGTG showed a switch fluorescence ratio of 0.998 ± 0.03.

With TTATTTCTTG the switch fluorescence ratio was 0.994 ± 0.046.

For TTATTTGATA, the switch fluorescence ratio was 1 ± 0.034.

In the case of TTATTTGCGC, the switch fluorescence ratio is reported as 1.024 ± 0.0036.

Work on TTATTTTATG yielded a switch fluorescence ratio of 0.994 ± 0.027.

TTATTTTTCG gave a switch fluorescence ratio of 1.02 ± 0.018.

In the case of TTATTTTTGG, the switch fluorescence ratio is reported as 0.989 ± 0.027.

TTCAAAAAAA was tested, and the switch fluorescence ratio was 0.97 ± 0.026.

TTCAAAACGT was tested, and the switch fluorescence ratio was 1.04 ± 0.017.

TTCAAAATTT was tested, and the switch fluorescence ratio was 0.982 ± 0.015.

In the case of TTCAAACATC, the switch fluorescence ratio is reported as 1 ± 0.015.

Sequence TTCAAATTGG has a switch fluorescence ratio of 1 ± 0.043.

TTCAAATTTT gave a switch fluorescence ratio of 1.01 ± 0.015.

TTCAAGGAGG was tested, and the switch fluorescence ratio was 0.978 ± 0.016.

Work on TTCAAGGGGG yielded a switch fluorescence ratio of 1 ± 0.018.

TTCAAGGTCA was tested, and the switch fluorescence ratio was 1.02 ± 0.028.

Work on TTCAAGTGGG yielded a switch fluorescence ratio of 0.9848 ± 0.0028.

TTCAATAGAA gave a switch fluorescence ratio of 0.998 ± 0.0029.

TTCAATGCTC gave a switch fluorescence ratio of 2.17 ± 0.82.

With TTCACAAGGT the switch fluorescence ratio was 1.004 ± 0.0049.

TTCACATACG showed a switch fluorescence ratio of 1.51 ± 0.03.

With TTCACGAAGA the switch fluorescence ratio was 1 ± 0.0015.

Sequence TTCACTGGGG has a switch fluorescence ratio of 1.05 ± 0.012.

For TTCACTTTTG, the switch fluorescence ratio was 1.01 ± 0.028.

TTCAGAAACA was tested, and the switch fluorescence ratio was 1.04 ± 0.037.

Sequence TTCAGAGAAA has a switch fluorescence ratio of 0.98 ± 0.034.

Sequence TTCAGAGGCG has a switch fluorescence ratio of 1.04 ± 0.011.

TTCAGCAAT was tested, and the switch fluorescence ratio was 5.31 ± 0.8.

TTCAGCCCGG gave a switch fluorescence ratio of 0.986 ± 0.056.

TTCAGCTACA showed a switch fluorescence ratio of 1.02 ± 0.029.

In the case of TTCAGCTGAG, the switch fluorescence ratio is reported as 0.9861 ± 0.0091.

Sequence TTCAGGAGGG has a switch fluorescence ratio of 0.991 ± 0.042.

TTCAGGCCTT showed a switch fluorescence ratio of 1.04 ± 0.059.

Sequence TTCAGGCTTT has a switch fluorescence ratio of 1.01 ± 0.011.

TTCAGGTACT showed a switch fluorescence ratio of 1.06 ± 0.019.

TTCAGTCCGG was tested, and the switch fluorescence ratio was 1.01 ± 0.026.

With TTCATATACT the switch fluorescence ratio was 1.06 ± 0.034.

In the case of TTCATATCAT, the switch fluorescence ratio is reported as 1 ± 0.03.

TTCATCGAGC gave a switch fluorescence ratio of 1.019 ± 0.0076.

TTCATCGGCA showed a switch fluorescence ratio of 1.35 ± 0.47.

TTCATCTGCA showed a switch fluorescence ratio of 2.19 ± 1.5.

Sequence TTCATGATTT has a switch fluorescence ratio of 1.034 ± 0.0045.

Sequence TTCATGGTAT has a switch fluorescence ratio of 0.991 ± 0.031.

Work on TTCATTATGG yielded a switch fluorescence ratio of 1.004 ± 0.0049.

TTCATTATTT was tested, and the switch fluorescence ratio was 1 ± 0.024.

In the case of TTCATTGGTT, the switch fluorescence ratio is reported as 0.998 ± 0.038.

With TTCATTTTGA the switch fluorescence ratio was 0.967 ± 0.015.

TTCCAGGGGA showed a switch fluorescence ratio of 1.08 ± 0.11.

TTCCAGGGTG gave a switch fluorescence ratio of 1.71 ± 0.92.

In the case of TTCCATGGCA, the switch fluorescence ratio is reported as 1.037 ± 0.0056.

For TTCCATTTGT, the switch fluorescence ratio was 1.031 ± 0.0019.

Sequence TTCCCAGCAG has a switch fluorescence ratio of 1.68 ± 0.65.

Sequence TTCCCCCCAA has a switch fluorescence ratio of 1.76 ± 0.74.

TTCCCGGGGG showed a switch fluorescence ratio of 1.06 ± 0.067.

For TTCCCGGGGT, the switch fluorescence ratio was 1.2 ± 0.32.

Sequence TTCCCGGTGT has a switch fluorescence ratio of 1.75 ± 0.041.

With TTCCCTAATG the switch fluorescence ratio was 1 ± 0.033.

For TTCCCTGAGA, the switch fluorescence ratio was 0.977 ± 0.025.

TTCCGAAATG showed a switch fluorescence ratio of 1.63 ± 0.17.

TTCCGAGTTC was tested, and the switch fluorescence ratio was 1.15 ± 0.13.

TTCCGGCGCT gave a switch fluorescence ratio of 3.42 ± 1.1.

Sequence TTCCGGGAAA has a switch fluorescence ratio of 0.968 ± 0.031.

Sequence TTCCGGGCTA has a switch fluorescence ratio of 1.47 ± 0.62.

With TTCCGGTCCG the switch fluorescence ratio was 1.16 ± 0.18.

For TTCCGGTTTG, the switch fluorescence ratio was 0.999 ± 0.054.

Sequence TTCCGTTAGA has a switch fluorescence ratio of 1.06 ± 0.017.

Sequence TTCCGTTGAA has a switch fluorescence ratio of 1.05 ± 0.044.

Sequence TTCCTAGGGA has a switch fluorescence ratio of 0.994 ± 0.046.

For TTCCTCTCGG, the switch fluorescence ratio was 1.17 ± 0.18.

With TTCCTTCGAT the switch fluorescence ratio was 1.51 ± 0.062.
